Test results published in patent US20200199217A1 (published 2020).

What was measured:
hu-IL-36β [1] = target: T1, hu-IL-36β (human); test: cell-based or functional assay
T1 chain: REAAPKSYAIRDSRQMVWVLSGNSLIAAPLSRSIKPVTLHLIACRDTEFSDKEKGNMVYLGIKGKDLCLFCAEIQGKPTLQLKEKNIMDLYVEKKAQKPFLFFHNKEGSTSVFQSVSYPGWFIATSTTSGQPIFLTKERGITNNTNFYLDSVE

hu-IL-36β [2] = target: T1, hu-IL-36β; test: cell-based or functional assay
cy-IL-36α = target: T2, cy-IL-36α (cynomolgus monkey, UniProt Q9UHA7 14-158 (human entry), limits assumed); test: cell-based or functional assay
T2 chain: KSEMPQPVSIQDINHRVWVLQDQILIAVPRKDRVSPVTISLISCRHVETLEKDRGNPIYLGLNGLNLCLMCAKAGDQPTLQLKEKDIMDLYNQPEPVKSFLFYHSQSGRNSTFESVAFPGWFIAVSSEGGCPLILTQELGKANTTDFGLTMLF

cy-IL-36γ = target: T3, cy-IL-36γ (cynomolgus monkey, UniProt Q9NZH8 18-167 (human entry), limits assumed); test: cell-based or functional assay
T3 chain: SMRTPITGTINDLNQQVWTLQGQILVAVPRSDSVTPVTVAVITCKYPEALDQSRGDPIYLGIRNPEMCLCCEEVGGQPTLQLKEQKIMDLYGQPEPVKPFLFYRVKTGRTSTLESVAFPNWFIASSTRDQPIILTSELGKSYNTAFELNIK

hu-IL-36α [3] = target: T4, hu-IL-36α (human, UniProt Q9UHA7 6-158); test: cell-based or functional assay
T4 sequence: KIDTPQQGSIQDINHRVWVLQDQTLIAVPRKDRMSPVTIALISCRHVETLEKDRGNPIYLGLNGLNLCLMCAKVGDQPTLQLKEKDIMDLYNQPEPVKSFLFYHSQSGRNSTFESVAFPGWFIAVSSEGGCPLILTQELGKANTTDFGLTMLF

hu-IL-36γ [4] = target: T5, hu-IL-36γ (human, UniProt Q9NZH8 18-169); test: cell-based or functional assay
T5 sequence: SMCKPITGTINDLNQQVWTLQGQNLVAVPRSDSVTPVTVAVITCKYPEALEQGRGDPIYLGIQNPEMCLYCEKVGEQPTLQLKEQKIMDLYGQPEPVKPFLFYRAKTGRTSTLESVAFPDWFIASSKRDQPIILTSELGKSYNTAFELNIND

hu-IL-36α [5] = target: T4, hu-IL-36α; test: cell-based or functional assay; remark: listed apart in the source
hu-IL-36β [6] = target: T1, hu-IL-36β; test: cell-based or functional assay
hu-IL-36γ [7] = target: T5, hu-IL-36γ; test: cell-based or functional assay; remark: listed apart in the source
cy-IL-36β = target: T6, cy-IL-36β (cynomolgus monkey); test: cell-based or functional assay
T6 chain: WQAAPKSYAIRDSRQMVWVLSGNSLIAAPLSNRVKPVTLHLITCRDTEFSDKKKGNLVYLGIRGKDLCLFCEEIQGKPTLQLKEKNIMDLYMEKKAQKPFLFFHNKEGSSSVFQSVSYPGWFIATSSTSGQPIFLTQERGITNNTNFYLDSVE

hu-IL-36β [8] = target: T1, hu-IL-36β; test: SPR (Biacore 8K), biotinylated hu-IL-36β captured, Fab injected, 37 C
Experimental: Briefly, a 1:4 dilution of Biotin CAPture Reagent (GE) into HBS-EP buffer (0.01 M HEPES pH 7.4, 0.15 M NaCl, 3 mM EDTA, 0.005% Surfactant P20) was applied to a CAP sensor chip at 2 uL/min flow rate. For kinetics measurements, 6 nM biotinylated human IL-36β was captured at 10 uL/min to achieve ˜50 response units in the second flow cell (FC2). FC1 was kept as a reference. Next, […] serial dilutions of Fab in HBS-P buffer (0.01M HEPES pH 7.4, 0.15M NaCl, 0.005% surfactant P20) from low (3.125 nM) to high (200 nM) were injected (flow rate: 10 uL/min) at 37° C. The sensorgram was recorded and subject to reference and buffer subtraction before evaluating by BIACORE® 8K Evaluation Software (version 1.1.1.7442). Association rates (kₒₙ) and dissociation rates (koff) were calculated using a simple one-to-one Langmuir binding model.

B1: mAb8.0 Fab (Fab, V domains shown)
VH: QVQLVQSGAEVKKPGSSVKVSCKASGGTFSNYAISWVRQAPGQGLEWMGGILPILGTVDYAQKFQGRVTITADESTSTAYMELSSLRSEDTAVYYCAREPWYRLGAFDVWGQGTLVTVSS
VL: DIQMTQSPSSLSASVGDRVTITCRASQTIYKYLNWYQQKPGKAPKLLIYAASSLQSGVPSRFSGSGSGTDFTLTISSLQPEDFATYYCQQYSSIPYTFGQGTKVEIK
- % Inhibition, HEK Blue SEAP reporter assay (hu-IL-36β [1]): 85%

B2: mAb8.0 IgG (antibody, V domains shown)
VH: QVQLVQSGAEVKKPGSSVKVSCKASGGTFSNYAISWVRQAPGQGLEWMGGILPILGTVDYAQKFQGRVTITADESTSTAYMELSSLRSEDTAVYYCAREPWYRLGAFDVWGQGTLVTVSS
VL: DIQMTQSPSSLSASVGDRVTITCRASQTIYKYLNWYQQKPGKAPKLLIYAASSLQSGVPSRFSGSGSGTDFTLTISSLQPEDFATYYCQQYSSIPYTFGQGTKVEIK
- IC50, HEK Blue SEAP reporter assay (hu-IL-36β [2]): 0.34 nM

B3: mAb7.0 Fab (Fab, V domains shown)
VH: QVQLVESGGGVVQPGRSLRLSCAASGFTFSSYGMHWVRQAPGKGLEWVAVISYGGSERYYADSVKGRFTISRDNSKNTLYLQMNSLRAEDTAVYYCAREPWYSSRGWTGYGFDVWGQGTLVTVSS
VL: EIVLTQSPGTLSLSPGERATLSCRASQSVSSNYLAWYQQKPGQAPKLLIYSASSLQSGVPSRFSGSGSGTDFTLTISSLQPEDFATYYCQQTYSYPPTFGQGTKVEIK
- % Inhibition, HEK Blue SEAP reporter assay (hu-IL-36β [1]): 84%

B4: mAb7.0 IgG (antibody, V domains shown)
VH: QVQLVESGGGVVQPGRSLRLSCAASGFTFSSYGMHWVRQAPGKGLEWVAVISYGGSERYYADSVKGRFTISRDNSKNTLYLQMNSLRAEDTAVYYCAREPWYSSRGWTGYGFDVWGQGTLVTVSS
VL: EIVLTQSPGTLSLSPGERATLSCRASQSVSSNYLAWYQQKPGQAPKLLIYSASSLQSGVPSRFSGSGSGTDFTLTISSLQPEDFATYYCQQTYSYPPTFGQGTKVEIK
- IC50, HEK Blue SEAP reporter assay (hu-IL-36β [2]): 1.4 nM

B5: mAb2.0 IgG (antibody, V domains shown)
VH: QLQLQESGPGLVKPSETLSLTCTVSGGSISTSSYYWGWIRQPPGKGLEWIGSIYYTGNTYYNPSLKSRVTISVDTSKNQFSLKLSSVTAADTAVYYCARVRYGVGVPRYFDPWGQGTLVTVSS
VL: QSVLTQPPSVSGAPGQRVTISCTGSSSNIGAHYDVHWYQQLPGTAPKLLIYGNDNRPSGVPDRFSGSKSGTSASLAITGLQAEDEADYYCQSYDYSLSGYVFGGGTKLTVLG
- IC50, HEK Blue SEAP reporter assay with cynomolgus IL-36 on human IL-36 receptor (cy-IL-36α): 0.56 nM
- IC50, HEK Blue SEAP reporter assay with cynomolgus IL-36 on human IL-36 receptor (cy-IL-36γ): 1.71 nM
- IC50, HEK Blue SEAP reporter assay (hu-IL-36α [3]): 5.7 nM
- IC50, HEK Blue SEAP reporter assay (hu-IL-36γ [4]): 7.5 nM

B6: anti-IL-36 multispecific antibody mAb2.10/mAb6_2.7 (bispecific antibody, human IgG1, lambda, N297G)
heavy 1: not shown
heavy 2: not shown
light: ESVLTQPPSVSGAPGQRVTISCTGSSSNIGAHYDVHWYQQLPGTAPKLLIYGNDNRPSGVPDRFSGSKSGTSASLAITGLQAEDEADYYCQSYDYSLSGYVFGGGTKLTVLGQPKAAPSVTLFPPSSEELQANKATLVCLISDFYPGAVTVAWKADSSPVKAGVETTTPSKQSNNKYAASSYLSLTPEQWKSHKSYSCQVTHEGSTVEKTVAPTECS
- percent of IL-8 production in HaCat cells inhibited at 8 nM antibody (hu-IL-36α [5]): 100%
- percent of IL-8 production in primary human adult keratinocytes inhibited at 8 nM antibody (hu-IL-36α [5]): 100%
- percent of IL-8 production in HaCat cells inhibited at 8 nM antibody (hu-IL-36β [6]): 100%
- percent of IL-8 production in primary human adult keratinocytes inhibited at 8 nM antibody (hu-IL-36β [6]): 100%
- percent of IL-8 production in HaCat cells inhibited at 8 nM antibody (hu-IL-36γ [7]): 100%
- percent of IL-8 production in primary human adult keratinocytes inhibited at 8 nM antibody (hu-IL-36γ [7]): 100%

B7: mAb6.0 Fab (Fab, V domains shown)
VH: QLQLQESGPGLVKPSETLSLTCTVSGGSITSSNYYWGWIRQPPGKGLEWIGSIDYTGSTYYNPSLKSRVTISVDTSKNQFSLKLSSVTAADTAVYYCARGKYYETYLGFDVWGQGTLVTVSS
VL: QSVLTQPPSVSGAPGQRVTISCTGSSSNIGAGYDVHWYQQLPGTAPKLLIYGNTNRPSGVPDRFSGSKSGTSASLAITGLQAEDEADYYCQSYDISLSGWVFGGGTKLTVL
- % Inhibition, HEK Blue SEAP reporter assay (hu-IL-36β [1]): 86%

B8: mAb6.0 IgG (antibody, V domains shown)
VH: QLQLQESGPGLVKPSETLSLTCTVSGGSITSSNYYWGWIRQPPGKGLEWIGSIDYTGSTYYNPSLKSRVTISVDTSKNQFSLKLSSVTAADTAVYYCARGKYYETYLGFDVWGQGTLVTVSS
VL: QESVLTQPPSVSGAPGQRVTISCTGSSSNIGAGYDVHWYQQLPGTAPKLLIYGNTNRPSGVPDRFSGSKSGTSASLAITGLQAEDEADYYCQSYDISLSGWVFGGGTKLTVLG
- blocking potency relative to the natural antagonist IL-36Ra, HaCat IL-8 assay (hu-IL-36β [6]): 1000 fold
- IC50, HEK Blue SEAP reporter assay with cynomolgus IL-36 on human IL-36 receptor (cy-IL-36β): 1.96 nM
- IC50, HEK Blue SEAP reporter assay (hu-IL-36β [2]): 0.64 nM

B9: mAb6.0_2.0 IgG (antibody, V domains shown)
VH: QLQLQESGPGLVKPSETLSLTCTVSGGSITSSNYYWGWIRQPPGKGLEWIGSIDYTGSTYYNPSLKSRVTISVDTSKNQFSLKLSSVTAADTAVYYCARGKYYETYLGFDVWGQGTLVTVSS
VL: QSVLTQPPSVSGAPGQRVTISCTGSSSNIGAHYDVHWYQQLPGTAPKLLIYGNDNRPSGVPDRFSGSKSGTSASLAITGLQAEDEADYYCQSYDYSLSGYVFGGGTKLTVLG
- fold lower potency than mAb6.0 IgG, HaCat IL-8 assay (hu-IL-36β [6]): 16 fold

B10: mAb6_2.6 Fab (Fab, V domains shown)
VH: ELQLQESGPGLVKPSETLSLTCTVSGGSITASNYYWGWIRQPPGKGLEWIGSIDYTGSTYYEPSLKSRVTISVDTSKNQFSLKLSSVTAADTAVYYCATGNYYETYLGFDVWGQGTLVTVSS
VL: ESVLTQPPSVSGAPGQRVTISCTGSSSNIGAHYDVHWYQQLPGTAPKLLIYGNDNRPSGVPDRFSGSKSGTSASLAITGLQAEDEADYYCQSYDYSLSGYVFGGGTKLTVL
notes: Recombinant Fab with 8xHis tag
- kon (hu-IL-36β [8]): 850000 M⁻¹ s⁻¹
